Test results taken from patent US20260201347A1, “ARTIFICIAL BIFUNCTIONAL ENZYME COMPRISING A MYELOPEROXIDASE ACTIVITY AND A GLUCOSE OXIDASE ACTIVITY AND APPLICATIONS THEREOF” (UNIVERSITÉ DE BORDEAUX, priority 2022, published 2026).
“And” between values parts separate entries of the source, which are not always exact repeats. Identical values can stand only once.

Assays:
Assay type in all cases: biochemical, Rhodopirellula baltica / Penicillium amagasakiens
[1] = substrate: OC[C@H]1OC(O)[C@H](O)[C@@H](O)[C@@H]1O; test: Coupled active sites, HOCl production from glucose, APF assay (Table 9), linker LEKREAEALEKREAEA; details: fixed NaCl 20 mM, pH7.5, pH 7.5
Description: (§1) Each experiment was performed in triplicate.
(§2) The activity of the two active sites was then assessed in conjunction to each other (FIG. 1).
(§3) Briefly, the aim was to measure the production of HOCl from glucose and NaCl as respective substrates of the enzymes, using the APF probe. Two types of kinetics were performed: • i) kinetics at various concentrations of glucose and a fixed concentration of NaCl, and • ii) kinetics at various concentration of NaCl and a fixed concentration of glucose.

[2] = substrate: OC[C@H]1OC(O)[C@H](O)[C@@H](O)[C@@H]1O; test: Coupled active sites, HOCl production from glucose, all other chimeras; details: glucose as substrate, pH 7.5
Description: as §1, §2, §3

[3] = substrate: OC[C@H]1OC(O)[C@H](O)[C@@H](O)[C@@H]1O; test: Coupled active sites, HOCl production from glucose, APF assay (Table 9), linker LEKREAEA; details: other: trimer; fixed NaCl 20 mM, pH7.5; pH 7.5
Description: as §1, §2, §3

[4] = substrate: OC[C@H]1OC(O)[C@H](O)[C@@H](O)[C@@H]1O; test: Coupled active sites, HOCl production from glucose, APF assay (Table 9), linker LGKRGAGA; details: fixed NaCl 20 mM, pH7.5, pH 7.5
Description: as §1, §2, §3

B1: RbMPO-LEKREAEALEKREAEA-GOx chimera (Rhodopirellula baltica myeloperoxidase, SEQ ID NO: 10; linker SEQ ID NO: 6; Penicillium amagasakiens glucose oxidase, SEQ … (protein)
chain: MLFWSKRTRKHPGRKRRRLRSEQLESRQLLAADFGGYRHNIYDAEDVNDDGRVSAIDALLVINAMTSETSRDENVFTDVNGDGRRSALDALRVINRIERGDVFPIDTSGDEDLNTLLPEMPSEVRSIDGSGNNPNDHLWGSVGQRLIRMAPAAYGDGISTLAGANRPSAREVSNVLSAMNTSQVLNDRGLSAFVYVWGQFIDHDLGLTESDEHGEAIDISVPEGDLWFDPMGSGEAVIPMTRTPIADGTGTSVGNPAQQFNQITAFIDGSMVYGSDAATAERLRTFAGGRLAISDNGLLPMDESGMVIAGDVRASENVGLTAIQTLFVREHNRLADEIFAADPEATDEEIYQRARLVVASLIQSITYNEFLPALLGQRAMDSYRGYDASVNPGIANEFSTAAFRLGHSTLRDEVGFMSNDGRESKDEMELKDAFFHASMLEETGIDSLLKFDASVQAQEIDLAVVDSLRNFLFGPPGAGGLDLVAMNIQRGRDHGLSDYNTTRQAYGLDRVETFDQITGDVELQQKLASLYGTVDNIDLWVGLMAEDHQHDASVGELTGLIIADQFQRTRDGDRFFYKNVLTDSEVESIERSTLADLIERNTSVDGLQENVFFMQVELRGRVILASSIPPNTMPSEVREEEIRGVSGMAIELIDASGKLVDSTVSDQHGNYRFRALSETGDYQVRLSESGEAMDVLVAHGAERIRGLDFIVLALEKREAEALEKREAEAYLPAQQIDVQSSLLSDPSKVAGKTYDYIIAGGGLTGLTVAAKLTENPKIKVLVIEKGFYESNDGAIIEDPNAYGQIFGTTVDQNYLTVPLINNRTNNIKAGKGLGGSTLINGDSWTRPDKVQIDSWEKVFGMEGWNWDNMFEYMKKAEAARTPTAAQLAAGHSFNATCHGTNGTVQSGARDNGQPWSPIMKALMNTVSALGVPVQQDFLCGHPRGVSMIMNNLDENQVRVDAARAWLLPNYQRSNLEILTGQMVGKVLFKQTASGPQAVGVNFGTNKAVNFDVFAKHEVLLAAGSAISPLILEYSGIGLKSVLDQANVTQLLDLPVGINMQDQTTTTVSSRASSAGAGQGQAVFFANFTETFGDYAPQARDLLNTKLDQWAEETVARGGFHNVTALKVQYENYRNWLLDEDVAFAELFMDTEGKINFDLWDLIPFTRGSVHILSSDPYLWQFANDPKFFLNEFDLLGQAAASKLARDLTSQGAMKEYFAGETLPGYNLVQNATLSQWSDYVLQNFRPNWHAVSSCSMMSRELGGVVDATAKVYGTQGLRVIDGSIPPTQVSSHVMTIFYGMALKVADAILDDYAKSA
notes: 6His (in the pET21a vector behind the XhoI site); made in house; host or cells: E. coli BL21Star (DE3)
[1]; other: dimer/monomer
  Km: 2020 ± 1070 µM
[1]; other: excluded
  Km: 14170 ± 4620 µM
  kcat: 0.00015 s⁻¹
  kcat/Km: 0.01 ± 0.004 M⁻¹ s⁻¹
[1]; other: trimer
  Km: 770 ± 500 µM
  kcat: 0.00137 s⁻¹
  kcat/Km: 1.7 ± 1.34 M⁻¹ s⁻¹ and 1.77 M⁻¹ s⁻¹

B2: RbMPO-GOx chimeras, all other chimeras (Penicillium amagasakiense) (protein)
chain: YLPAQQIDVQSSLLSDPSKVAGKTYDYIIAGGGLTGLTVAAKLTENPKIKVLVIEKGFYESNDGAIIEDPNAYGQIFGTTVDQNYLTVPLINNRTNNIKAGKGLGGSTLINGDSWTRPDKVQIDSWEKVFGMEGWNWDNMFEYMKKAEAARTPTAAQLAAGHSFNATCHGTNGTVQSGARDNGQPWSPIMKALMNTVSALGVPVQQDFLCGHPRGVSMIMNNLDENQVRVDAARAWLLPNYQRSNLEILTGQMVGKVLFKQTASGPQAVGVNFGTNKAVNFDVFAKHEVLLAAGSAISPLILEYSGIGLKSVLDQANVTQLLDLPVGINMQDQTTTTVSSRASSAGAGQGQAVFFANFTETFGDYAPQARDLLNTKLDQWAEETVARGGFHNVTALKVQYENYRNWLLDEDVAFAELFMDTEGKINFDLWDLIPFTRGSVHILSSDPYLWQFANDPKFFLNEFDLLGQAAASKLARDLTSQGAMKEYFAGETLPGYNLVQNATLSQWSDYVLQNFRPNWHAVSSCSMMSRELGGVVDATAKVYGTQGLRVIDGSIPPTQVSSHVMTIFYGMALKVADAILDDYAKSA
notes: pET21a, E. coli; heme and FAD reconstituted; GOx mature part (P81156 19-605)
[2]
  kcat/Km: 1 M⁻¹ s⁻¹

B3: RbMPO-LEKREAEA-GOx chimera (Rhodopirellula baltica myeloperoxidase, SEQ ID NO: 10; linker SEQ ID NO: 7; Penicillium amagasakiens glucose oxidase, SEQ ID NO: … (protein)
chain: MLFWSKRTRKHPGRKRRRLRSEQLESRQLLAADFGGYRHNIYDAEDVNDDGRVSAIDALLVINAMTSETSRDENVFTDVNGDGRRSALDALRVINRIERGDVFPIDTSGDEDLNTLLPEMPSEVRSIDGSGNNPNDHLWGSVGQRLIRMAPAAYGDGISTLAGANRPSAREVSNVLSAMNTSQVLNDRGLSAFVYVWGQFIDHDLGLTESDEHGEAIDISVPEGDLWFDPMGSGEAVIPMTRTPIADGTGTSVGNPAQQFNQITAFIDGSMVYGSDAATAERLRTFAGGRLAISDNGLLPMDESGMVIAGDVRASENVGLTAIQTLFVREHNRLADEIFAADPEATDEEIYQRARLVVASLIQSITYNEFLPALLGQRAMDSYRGYDASVNPGIANEFSTAAFRLGHSTLRDEVGFMSNDGRESKDEMELKDAFFHASMLEETGIDSLLKFDASVQAQEIDLAVVDSLRNFLFGPPGAGGLDLVAMNIQRGRDHGLSDYNTTRQAYGLDRVETFDQITGDVELQQKLASLYGTVDNIDLWVGLMAEDHQHDASVGELTGLIIADQFQRTRDGDRFFYKNVLTDSEVESIERSTLADLIERNTSVDGLQENVFFMQVELRGRVILASSIPPNTMPSEVREEEIRGVSGMAIELIDASGKLVDSTVSDQHGNYRFRALSETGDYQVRLSESGEAMDVLVAHGAERIRGLDFIVLALEKREAEAYLPAQQIDVQSSLLSDPSKVAGKTYDYIIAGGGLTGLTVAAKLTENPKIKVLVIEKGFYESNDGAIIEDPNAYGQIFGTTVDQNYLTVPLINNRTNNIKAGKGLGGSTLINGDSWTRPDKVQIDSWEKVFGMEGWNWDNMFEYMKKAEAARTPTAAQLAAGHSFNATCHGTNGTVQSGARDNGQPWSPIMKALMNTVSALGVPVQQDFLCGHPRGVSMIMNNLDENQVRVDAARAWLLPNYQRSNLEILTGQMVGKVLFKQTASGPQAVGVNFGTNKAVNFDVFAKHEVLLAAGSAISPLILEYSGIGLKSVLDQANVTQLLDLPVGINMQDQTTTTVSSRASSAGAGQGQAVFFANFTETFGDYAPQARDLLNTKLDQWAEETVARGGFHNVTALKVQYENYRNWLLDEDVAFAELFMDTEGKINFDLWDLIPFTRGSVHILSSDPYLWQFANDPKFFLNEFDLLGQAAASKLARDLTSQGAMKEYFAGETLPGYNLVQNATLSQWSDYVLQNFRPNWHAVSSCSMMSRELGGVVDATAKVYGTQGLRVIDGSIPPTQVSSHVMTIFYGMALKVADAILDDYAKSA
notes: as for B1
[3]
  Km: 10620 ± 8250 µM
  kcat: 0.000109 s⁻¹
  kcat/Km: 0.01 ± 0.011 M⁻¹ s⁻¹

B4: RbMPO-LGKRGAGA-GOx chimera (Rhodopirellula baltica myeloperoxidase, SEQ ID NO: 10; linker SEQ ID NO: 5; Penicillium amagasakiens glucose oxidase, SEQ ID NO: … (protein)
chain: MLFWSKRTRKHPGRKRRRLRSEQLESRQLLAADFGGYRHNIYDAEDVNDDGRVSAIDALLVINAMTSETSRDENVFTDVNGDGRRSALDALRVINRIERGDVFPIDTSGDEDLNTLLPEMPSEVRSIDGSGNNPNDHLWGSVGQRLIRMAPAAYGDGISTLAGANRPSAREVSNVLSAMNTSQVLNDRGLSAFVYVWGQFIDHDLGLTESDEHGEAIDISVPEGDLWFDPMGSGEAVIPMTRTPIADGTGTSVGNPAQQFNQITAFIDGSMVYGSDAATAERLRTFAGGRLAISDNGLLPMDESGMVIAGDVRASENVGLTAIQTLFVREHNRLADEIFAADPEATDEEIYQRARLVVASLIQSITYNEFLPALLGQRAMDSYRGYDASVNPGIANEFSTAAFRLGHSTLRDEVGFMSNDGRESKDEMELKDAFFHASMLEETGIDSLLKFDASVQAQEIDLAVVDSLRNFLFGPPGAGGLDLVAMNIQRGRDHGLSDYNTTRQAYGLDRVETFDQITGDVELQQKLASLYGTVDNIDLWVGLMAEDHQHDASVGELTGLIIADQFQRTRDGDRFFYKNVLTDSEVESIERSTLADLIERNTSVDGLQENVFFMQVELRGRVILASSIPPNTMPSEVREEEIRGVSGMAIELIDASGKLVDSTVSDQHGNYRFRALSETGDYQVRLSESGEAMDVLVAHGAERIRGLDFIVLALGKRGAGAYLPAQQIDVQSSLLSDPSKVAGKTYDYIIAGGGLTGLTVAAKLTENPKIKVLVIEKGFYESNDGAIIEDPNAYGQIFGTTVDQNYLTVPLINNRTNNIKAGKGLGGSTLINGDSWTRPDKVQIDSWEKVFGMEGWNWDNMFEYMKKAEAARTPTAAQLAAGHSFNATCHGTNGTVQSGARDNGQPWSPIMKALMNTVSALGVPVQQDFLCGHPRGVSMIMNNLDENQVRVDAARAWLLPNYQRSNLEILTGQMVGKVLFKQTASGPQAVGVNFGTNKAVNFDVFAKHEVLLAAGSAISPLILEYSGIGLKSVLDQANVTQLLDLPVGINMQDQTTTTVSSRASSAGAGQGQAVFFANFTETFGDYAPQARDLLNTKLDQWAEETVARGGFHNVTALKVQYENYRNWLLDEDVAFAELFMDTEGKINFDLWDLIPFTRGSVHILSSDPYLWQFANDPKFFLNEFDLLGQAAASKLARDLTSQGAMKEYFAGETLPGYNLVQNATLSQWSDYVLQNFRPNWHAVSSCSMMSRELGGVVDATAKVYGTQGLRVIDGSIPPTQVSSHVMTIFYGMALKVADAILDDYAKSA
notes: as for B1
[4]; other: dimer/monomer
  Km: 66900 ± 24100 µM
  kcat: 0.00305 s⁻¹
  kcat/Km: 0.046 ± 0.025 M⁻¹ s⁻¹
[4]; other: excluded
  Km: 2270 ± 1300 µM
  kcat: 0.00133 s⁻¹
  kcat/Km: 0.586 ± 0.384 M⁻¹ s⁻¹
[4]; other: trimer
  Km: 2022 ± 644 µM
  kcat: 0.0022 s⁻¹
  kcat/Km: 1.09 ± 0.801 M⁻¹ s⁻¹
